Laboratory results reported in paper PMC7046635, “A combined experimental and modelling approach for the Weimberg pathway optimisation” (Nature Communications, 2020).

Legend:
[1] = substrate: NC(=O)c1ccc[n+]([C@@H]2O[C@H](COP(=O)(O)OP(=O)(O)OC[C@H]3O[C@@H](n4cnc5c(N)ncnc54)[C@H](O)[C@@H]3O)[C@@H](O)[C@H]2O)c1; test: purified protein, by the assay type; design: initial rate kinetics of purified recombinant enzyme, classical Michaelis-Menten fit
Description: The five genes of the D-xylose operon, i.e., CCNA_00862–00866, were amplified by PCR using gene-specific primers (Supplementary Table 1) and the genomic DNA of C. crescentus NA1000 as template. The PCR products were cloned into pET (Novagen) expression vectors (Supplementary Table 1) and successful cloning was confirmed by sequencing (LGC genomics, Berlin). For expression, the respective plasmids were transformed into the E. coli BL21-pRIL (DE3) or Rosetta (DE3, Stratagene) (Supplementary Table 1). Overexpression was performed in LB medium containing the appropriate antibiotic. The cells were grown at 37 °C to an OD600 of 0.6–0.7 and induced with 1 mM isopropyl-β-D-thiogalactopyranoside. After induction, the cultures were further incubated at 37 °C for 4 h or at 30 °C or at 21 °C for 18–22 h (Supplementary Table 1), respectively. Cells were collected by centrifugation (15 min, 8630 × g, 4 °C) and the pellets were stored at −70 °C. Due to the choice of the vectors, all of the C. crescentus enzymes were N-terminally histidine tagged. The recombinant L-isoleucine dioxygenase from B. thuringiensis (BtDO) contained a C-terminal 6× histidine tag[47]. […] For XLA and KDXD, the inhibition constants for D-xylonate and KGSA, respectively, had to be fitted based on the conversion data, as these enzymes are analysed in coupled enzyme assays. […]

[2] = substrate: NC(=O)c1ccc[n+]([C@@H]2O[C@H](COP(=O)(O)OP(=O)(O)OC[C@H]3O[C@@H](n4cnc5c(N)ncnc54)[C@H](O)[C@@H]3O)[C@@H](O)[C@H]2O)c1; test: purified protein; assay type: biochemical, Caulobacter vibrioides; details: 100 mM HEPES/NaOH pH 7.5, 37 °C, varied: cofactor
[3] = substrate: O=CCCC(=O)C(=O)O; test: purified protein; assay type: biochemical, Caulobacter vibrioides; details: 100 mM HEPES/NaOH pH 7.5, 37 °C, co-substrate NAD+
[4] = substrate: NC(=O)c1ccc[n+]([C@@H]2O[C@H](COP(=O)(O)OP(=O)(O)OC[C@H]3O[C@@H](n4cnc5c(N)ncnc54)[C@H](OP(=O)(O)O)[C@@H]3O)[C@@H](O)[C@H]2O)c1; test: purified protein; assay type: biochemical, Caulobacter vibrioides; details: 100 mM HEPES/NaOH pH 7.5, 37 °C, varied: cofactor
[5] = substrate: O=CCCC(=O)O; test: purified protein; assay type: biochemical, Caulobacter vibrioides; details: 100 mM HEPES/NaOH pH 7.5, 37 °C, NAD(P)+
[6] = substrate: O=CCCCC=O; test: purified protein; assay type: biochemical, Caulobacter vibrioides; details: 100 mM HEPES/NaOH pH 7.5, 37 °C, NAD(P)+
[7] = substrate: O=C1O[C@H](CO)[C@H](O)[C@H]1O; test: purified protein; assay type: biochemical, Caulobacter vibrioides; details: 100 mM HEPES/NaOH pH 7.5, 37 °C, 5 mM NAD+
[8] = substrate: O=C(O)C(=O)C[C@H](O)CO; test: purified protein; assay type: biochemical, Caulobacter vibrioides; details: 100 mM HEPES/NaOH pH 7.5, 37 °C, 5 mM NAD+

B1: D-xylose dehydrogenase (XDH) (Caulobacter vibrioides NA1000) (protein)
chain: MSSAIYPSLKGKRVVITGGGSGIGAGLTAGFARQGAEVIFLDIADEDSRALEAELAGSPIPPVYKRCDLMNLEAIKAVFAEIGDVDVLVNNAGNDDRHKLADVTGAYWDERINVNLRHMLFCTQAVAPGMKKRGGGAVINFGSISWHLGLEDLVLYETAKAGIEGMTRALARELGPDDIRVTCVVPGNVKTKRQEKWYTPEGEAQIVAAQCLKGRIVPENVAALVLFLASDDASLCTGHEYWIDAGWR
notes: full-length gene in pET vector, N-terminal His tag, E. coli expression, Ni-TED and size exclusion
In the case of B1, the Km [1] is reported as 170 µM, the Km ([2]; co-substrate D-xylose) is reported as 160 µM and the Vmax ([2]; co-substrate D-xylose) is reported as 120 µmol/min/mg. It also gave a kcat ([2]; co-substrate D-xylose) of 57 s⁻¹ and a kcat/Km ([2]; co-substrate D-xylose) of 356000 M⁻¹ s⁻¹.

B2: α-Ketoglutarate semialdehyde dehydrogenase (KGSADH) (Caulobacter vibrioides NA1000) (protein)
chain: MTDTLRHYIGGERVAADAPAESLNPSNTNDVVAKVPMGGQAEVDAAVDAARKAFPAWADASPEVRSDLLDKVGSTIIARSADIGRLLAREEGKTLAEGIGETVRAGRIFKYFAGEALRRHGQNLESTRPGVEIQTYRQAVGVYGLITPWNFPIAIPAWKAAPALAFGNTVVIKPAGPTPATANVLADIMAECGAPAGVFNMLFGRGSMGDALIKHKDVDGVSFTGSQGVGAQVAAAAVARQARVQLEMGGKNPLIVLDDADLERAVAIALDGSFFATGQRCTASSRLIVQDGIHDKFVALLAEKVAALRVGDALDPNTQIGPAVSEDQMETSYRYIDIAASEGGRVVTGGDRIKLDNPGWYVRPTLIADTQAGMRINNEEVFGPVASTIRVKSYEEALEIANGVEFGLSAGIATTSLKHARHFQRYARAGMTMVNLATAGVDYHVPFGGTKSSSYGAREQGFAAVEFFTQTKTSYSWS
notes: as for B1
B2 was tested, and the Km [3] was 20 µM, the Vmax [3] was 49 µmol/min/mg and the kcat [3] was 41 s⁻¹. For the same protein, the kcat/Km [3] was 2.05e+06 M⁻¹ s⁻¹, the Km [4] was 20 µM and the Km [5] was 400 µM. It also gave a Km [6] of 2510 µM, a Km ([2]; co-substrate KGSA) of 600 µM and a Vmax ([2]; co-substrate KGSA) of 49 µmol/min/mg. The kcat ([2]; co-substrate KGSA) was 41 s⁻¹ and the kcat/Km ([2]; co-substrate KGSA) was 68000 M⁻¹ s⁻¹.

B3: Xylonolactonase (XLA) (Caulobacter vibrioides NA1000) (protein)
chain: MTAQVTCVWDLKATLGEGPIWHGDTLWFVDIKQRKIHNYHPATGERFSFDAPDQVTFLAPIVGATGFVVGLKTGIHRFHPATGFSLLLEVEDAALNNRPNDATVDAQGRLWFGTMHDGEENNSGSLYRMDLTGVARMDRDICITNGPCVSPDGKTFYHTDTLEKTIYAFDLAEDGLLSNKRVFVQFALGDDVYPDGSVVDSEGYLWTALWGGFGAVRFSPQGDAVTRIELPAPNVTKPCFGGPDLKTLYFTTARKGLSDETLAQYPLAGGVFAVPVDVAGQPQHEVRLV
notes: as for B1
B3 showed a Km [7] of 450 µM, a Vmax [7] of 944 µmol/min/mg and a kcat [7] of 497 s⁻¹. The kcat/Km [7] was 1.1e+06 M⁻¹ s⁻¹.

B4: 2-Keto-3-deoxy-D-xylonate dehydratase (KDXD) (Caulobacter vibrioides NA1000) (protein)
chain: MGVSEFLPEDWKAATLLGRIDFGEGPTPVLVRGGRVEDVSKIAPTVADLMNAFQPGAVIPRGEDKGPLEALDIRPVWEDPDGAAPVKLLAPVDLQCLKAAGVTFAVSTLERVIEERARGDAGEALKIRTLLAERMGGDLKSVEPGSQGAQRLKDALIADGLWSQYLEVAIGPDAEIFTKGPTLSSMGWGDQVGVRYDSHWNNPEPEVVLLCDGSGLIRGAALGNDVNLRDFEGRSALLLSKAKDNNASCAIGPFFRLFDETFGLDDVRSAEVELKITGRDNFVLDGKSNMSLISRDPAVLAGQAYGKQHQYPDGFALFLGTMFAPIQDRDTPGQGFTHKVGDRVRVSTPKLGVLENEVTTCDKAKPWTFGISALIRNLAGRGLL
notes: as for B1
Protein B4 has a Km [8] of 210 µM, a Vmax [8] of 107 µmol/min/mg and a kcat [8] of 74 s⁻¹. For the same protein, the kcat/Km [8] was 352000 M⁻¹ s⁻¹.
